We go through two molecules from patent US20210139588A1 (STCUBE, published 2021).

The chains are these.
B1: 4NQ mutant (unglycosylated) PD-1 expressed on 293T cells (PD-1-Flag) (receptor)
chain: LDSPDRPWNPPTFSPALLVVTEGDQATFTCSFSQTSESFVLNWYRMSPSQQTDKLAAFPEDRSQPGQDCRFRVTQLPNGRDFHMSVVRARRQDSGTYLCGAISLAPKAQIKESLRAELRVTERRAEVPTAHPSPSPRPAGQFQTLVVGVVGGLLGSLVLLVWVLAVICSRAARGTIGARRTGQPLKEDPSAVPVFSVDYGELDFQWREKTPEPPVPCVPEQTEYATIVFPSGMGTSSPARRGSADGPRSAQPLRPEDGHCSWPL
notes: also called PD-1 4NQ; not shown: Flag tag

Test [1] addresses T1, recombinant human PD-L1-Fc chimera protein (R&D Systems) (human, UniProt Q9NZQ7 19-239).
T1 construct: Bought reagent; Used fluorescently labeled or detected with anti-human-Fc Alexa Fluor 488; also called PD-L1-Fc fusion protein; not shown: Fc portion, detected with anti-human IgG
Description: live-cell imaging (IncuCyte) of labeled PD-L1-Fc on 293T cells. From the text: PD-L1 and PD-1 (PD-L1/PD-1) interaction assay. […] The secondary antibodies used were anti-human Alexa Fluor 488 dye conjugate (Life Technologies). The fluorescence intensity of Alexa Fluor 488 dye was then monitored using a real-time microscope IncuCyte (Essen BioScience, Ann Arbor, Mich., USA).
Ligand and receptor binding was quantified by IncuCyte™Zoom every hour, according to the manufacturer's instructions.

For the next test, the target named is T2, PD-1-His (Homo sapiens (Human), UniProt Q15116 25-170, limits assumed).
T2 construct: also called glycosylated PD-1 (BIACORE antigen); not shown: His tag
Description: BIACORE (SPR), antigen PD-1-His. (In SPR one partner is held on a chip, and binding of the other changes the refractive index at the surface.)

The target in test [2] is T3, N74Q mutant PD-1-Fc protein (Homo sapiens (Human), UniProt Q15116 25-170).
T3 construct: also called PD-1 with a mutant glycosylation site at position 74; not shown: Fc portion
Description: Western blot of PD-1-Fc proteins. In general terms: In western blotting, separated proteins are transferred to a membrane and probed.

Test [3] addresses T4, N49Q mutant PD-1-Fc protein (Homo sapiens (Human), UniProt Q15116 25-170).
T4 construct: also called PD-1 with a mutant glycosylation site at position 49; not shown: Fc portion
Briefly: Western blot of PD-1-Fc proteins.

The target in test [4] is T5, wild type (glycosylated) PD-1 expressed on 293T cells (PD-1-Flag) (human, UniProt Q15116 25-288, N-linked glycosylation at N49, N58, N74 and N116).
T5 construct: also called PD-1 WT; not shown: Flag tag
Briefly: flow cytometry on 293T cells; reference: 4NQ PD-1 cells. As for the experimental part:
(§1) Flow Cytometry. Cells overexpressing PD-1 wild type and mutant proteins or control vector were isolated by trypsinization and collected in Cell Staining Buffer (CSB) (BioLegend, San Diego, Calif., US) at 2×10⁶ cells/mL. 50 μL of cells were aliquoted to a 96 well round-bottom plate, to which 50 μL of 20 μg/mL primary antibody was added, followed by gentle mixing and 1 h incubation at 4° C. in the dark. Cells were washed with CSB, incubated with anti-mouse IgG-PE conjugate (10 μg/mL) with DAPI (1:100) 30 minutes 21° C. in the dark. Cells were washed and data acquired using Guava EasyCyte HT (Millipore Darmstadt, Del.) or FACS Celesta (Becton Dickinson, Franklin Lakes, N.J., US) flow cytometer.
For orientation: A flow cytometer gives signals particle by particle.

In test [5] the target is T5, wild type (glycosylated) PD-1 expressed …. Briefly: flow cytometry on 293T cells expressing wild type PD-1 against 293T cells expressing 4NQ PD-1, labeled secondary antibody. As for the experimental part:
as §1

In test [6] the target is T6, N49Q mutant PD-1 expressed on 293T cells (PD-1-Flag) (human, UniProt Q15116 25-288).
T6 construct: also called N49Q PD-1; not shown: Flag tag
Description: flow cytometry on 293T cells expressing N49Q PD-1, anti-mouse IgG-PE secondary. As for the experimental part: as §1

In test [7] the target is T7, N116Q mutant PD-1 expressed on 293T cells (PD-1-Flag) (human, UniProt Q15116 25-288).
T7 construct: also called N116Q PD-1; not shown: Flag tag
Description: flow cytometry on 293T cells expressing N116Q PD-1, anti-mouse IgG-PE secondary. As for the experimental part: as §1

In test [8] the target is T7, N116Q mutant PD-1 expressed on 293T …. Description: flow cytometry on 293T cells expressing the PD-1 variant, anti-mouse IgG-PE secondary, DAPI-negative population gated; percent of cells right of the dashed gate; 293T blank cells give 2.71. How it is done:
as §1

Test [9] has as its target B1. The test is described as above. As for the experimental part: as §1
Test [10] has as its target T8, N74Q mutant PD-1 expressed on 293T cells (PD-1-Flag) (human, UniProt Q15116 25-288).
T8 construct: also called N74Q PD-1; not shown: Flag tag
The test is described as above. How it is done: as §1

For test [11], the target named is T6, N49Q mutant PD-1 expressed on 293T …. The test is described as above. As for the experimental part:
as §1

Test [12] deals with T8, N74Q mutant PD-1 expressed on 293T …. Briefly: flow cytometry on 293T cells expressing N74Q PD-1, anti-mouse IgG-PE secondary. How it is done:
as §1

The target of test [13] is B1. Briefly: flow cytometry on 293T cells expressing 4NQ PD-1, anti-mouse IgG-PE secondary. How it is done: as §1
The target of test [14] is T5, wild type (glycosylated) PD-1 expressed …. Briefly: inhibition of PD-L1-Fc binding to 293T cells overexpressing PD-1, IncuCyte fluorescence imaging. As for the experimental part:
Green fluorescence was measured every 2 hours by IncuCyte™ Zoom device and quantitated by IncuCyte™ Zoom Software (Essen BioScience, Ann Arbor, Mich., USA).

The target in test [15] is T9, N58Q mutant PD-1 expressed on 293T cells (PD-1-Flag) (human, UniProt Q15116 25-288).
T9 construct: also called N58Q PD-1; not shown: Flag tag
Description: flow cytometry on 293T cells expressing the PD-1 form, labeled secondary antibody. As for the experimental part:
as §1

For test [16], the target named is T7, N116Q mutant PD-1 expressed on 293T …. The test is described as above. How it is done: as §1
Test [17] addresses B1. The test is described as above. How it is done:
as §1

In test [18] the target is T8, N74Q mutant PD-1 expressed on 293T …. The description is as above. As for the experimental part:
as §1

Test [19] addresses T5, wild type (glycosylated) PD-1 expressed …. Described as above. How it is done:
as §1

Test [20] has as its target T6, N49Q mutant PD-1 expressed on 293T …. The test is described as above. How it is done: as §1

T1 sequence (Q9NZQ7 19-239 limits assumed, change not shown): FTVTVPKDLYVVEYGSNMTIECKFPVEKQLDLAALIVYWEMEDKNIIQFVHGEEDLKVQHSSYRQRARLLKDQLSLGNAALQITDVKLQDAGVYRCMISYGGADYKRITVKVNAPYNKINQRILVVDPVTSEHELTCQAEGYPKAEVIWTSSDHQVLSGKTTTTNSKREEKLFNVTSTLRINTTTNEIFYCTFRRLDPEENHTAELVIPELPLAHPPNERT

On to B1, for which, in test [1], the binding result is on record as “no binding”.

B2: anti-glycPD-1 monoclonal antibody STM432 (antibody, V domains shown)
VH: EVMLVEPGGGLVKPGGSLKLSCAASGFTFSSYGMSWVRQTPEKRLEWVATISGGGANTYYPDTVKGRFTISRDNAKNTLYLQMNSLRSEDTALYYCARYGYDTVFAYWGQGTLVTVSA
VL: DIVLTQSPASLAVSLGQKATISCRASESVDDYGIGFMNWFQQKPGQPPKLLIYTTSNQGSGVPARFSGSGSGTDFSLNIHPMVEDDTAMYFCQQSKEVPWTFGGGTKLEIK
notes: Mouse monoclonal antibody from a hybridoma; also called MAb STM432
Consider B2, for which the Kd – broadly, the constant that tells how readily two partners part at equilibrium – with PD-1-His is 296 nM. For the same molecule, in the test with PD-1-His, the koff (usually the first-order rate constant of dissociation) was 0.0053 s⁻¹. For the same molecule, the on-rate (kon) (in general, the second-order rate constant of association) with PD-1-His was found to be 17900 M⁻¹ s⁻¹. Also, the binding result in [2] is listed as “no binding (tested: 0.5 µg protein on the blot)”; in test [3] it was “no binding (tested: 0.5 µg protein on the blot)”; in test [6], “no binding”; in test [7], “no binding”; in test [12] it was “no binding”; in test [13], “no binding”. Besides, the “fold MFI on wild type PD-1 against unglycosylated 4NQ mutant PD-1” value in test [4] is around 43 fold. In addition, in test [5], the “fold MFI against binding to the unglycosylated 4NQ mutant PD-1” value is around 43 times. The “Unit (%) (cells in the positive gate)” value in [8] amounted to 4.12%; in test [9] it was 1.82%; in test [10] it was 7.71%; in test [11], 4.6%. The EC50 (as a rule, the concentration at which the effect is half-maximal) in test [14] was determined as 0.11 µg/mL. The MFI came to 413 MFI in [15]; 31 MFI in test [16]; 26 MFI in [17]; 29 MFI in test [18]; 1140 MFI in [19]; 32 MFI in [20].
